T1: human IL-18BP (human, UniProt O95998 31-194)
T1 construct: UniProt printed as 095998; also called hIL-18BP
T1 sequence: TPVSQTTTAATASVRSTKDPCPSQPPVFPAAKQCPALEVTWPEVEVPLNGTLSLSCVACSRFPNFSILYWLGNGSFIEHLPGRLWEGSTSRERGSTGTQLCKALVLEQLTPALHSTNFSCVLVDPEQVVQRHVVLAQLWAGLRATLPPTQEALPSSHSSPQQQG


Each binder was assayed against T1, human IL-18BP (assay: BLI, apparent KD).

Binder	Kd
SA301a HC-G55K (antibody, name in Kabat numbering, V domains shown, IgG1 kappa) VH: QVQLQESGPGLVKPSQTLSLTCTVSGYSITSDYNSHWIRQPPGKGLEWIGYIHYSKSTNYNPSLKSRVTISRDTSKNQFSLKLSSVTAADTAVYYCARNYGSIYVNYFDYWGQGTLVTVSS VL: EIVLTQSPATLSLSPGERATLSCSASSSVSYMYWYQQKPGQAPRPLIYRTSNLASGIPARFSGSGSGTDFTLTISSLEPEDFAVYYCQQYHSYPTFGGGTKVEIK	1040 pM
SA301a HC-N58K (antibody, name in Kabat numbering, V domains shown, IgG1 kappa) VH: QVQLQESGPGLVKPSQTLSLTCTVSGYSITSDYNSHWIRQPPGKGLEWIGYIHYSGSTKYNPSLKSRVTISRDTSKNQFSLKLSSVTAADTAVYYCARNYGSIYVNYFDYWGQGTLVTVSS VL: EIVLTQSPATLSLSPGERATLSCSASSSVSYMYWYQQKPGQAPRPLIYRTSNLASGIPARFSGSGSGTDFTLTISSLEPEDFAVYYCQQYHSYPTFGGGTKVEIK	340 pM
SA301a HC-N58M (antibody, name in Kabat numbering, V domains shown, IgG1 kappa) VH: QVQLQESGPGLVKPSQTLSLTCTVSGYSITSDYNSHWIRQPPGKGLEWIGYIHYSGSTMYNPSLKSRVTISRDTSKNQFSLKLSSVTAADTAVYYCARNYGSIYVNYFDYWGQGTLVTVSS VL: EIVLTQSPATLSLSPGERATLSCSASSSVSYMYWYQQKPGQAPRPLIYRTSNLASGIPARFSGSGSGTDFTLTISSLEPEDFAVYYCQQYHSYPTFGGGTKVEIK	230 pM
SA301a HC-N58G (antibody, name in Kabat numbering, V domains shown, IgG1 kappa) VH: QVQLQESGPGLVKPSQTLSLTCTVSGYSITSDYNSHWIRQPPGKGLEWIGYIHYSGSTGYNPSLKSRVTISRDTSKNQFSLKLSSVTAADTAVYYCARNYGSIYVNYFDYWGQGTLVTVSS VL: EIVLTQSPATLSLSPGERATLSCSASSSVSYMYWYQQKPGQAPRPLIYRTSNLASGIPARFSGSGSGTDFTLTISSLEPEDFAVYYCQQYHSYPTFGGGTKVEIK	4390 pM
SA301a HC-N58P (antibody, name in Kabat numbering, V domains shown, IgG1 kappa) VH: QVQLQESGPGLVKPSQTLSLTCTVSGYSITSDYNSHWIRQPPGKGLEWIGYIHYSGSTPYNPSLKSRVTISRDTSKNQFSLKLSSVTAADTAVYYCARNYGSIYVNYFDYWGQGTLVTVSS VL: EIVLTQSPATLSLSPGERATLSCSASSSVSYMYWYQQKPGQAPRPLIYRTSNLASGIPARFSGSGSGTDFTLTISSLEPEDFAVYYCQQYHSYPTFGGGTKVEIK	410 pM
SA301a HC-N58T (antibody, name in Kabat numbering, V domains shown, IgG1 kappa) VH: QVQLQESGPGLVKPSQTLSLTCTVSGYSITSDYNSHWIRQPPGKGLEWIGYIHYSGSTTYNPSLKSRVTISRDTSKNQFSLKLSSVTAADTAVYYCARNYGSIYVNYFDYWGQGTLVTVSS VL: EIVLTQSPATLSLSPGERATLSCSASSSVSYMYWYQQKPGQAPRPLIYRTSNLASGIPARFSGSGSGTDFTLTISSLEPEDFAVYYCQQYHSYPTFGGGTKVEIK	470 pM
SA301a HC-G55Y (antibody, name in Kabat numbering, V domains shown, IgG1 kappa) VH: QVQLQESGPGLVKPSQTLSLTCTVSGYSITSDYNSHWIRQPPGKGLEWIGYIHYSYSTNYNPSLKSRVTISRDTSKNQFSLKLSSVTAADTAVYYCARNYGSIYVNYFDYWGQGTLVTVSS VL: EIVLTQSPATLSLSPGERATLSCSASSSVSYMYWYQQKPGQAPRPLIYRTSNLASGIPARFSGSGSGTDFTLTISSLEPEDFAVYYCQQYHSYPTFGGGTKVEIK	2330 pM
SA301a HC-N58Q (antibody, name in Kabat numbering, V domains shown, IgG1 kappa) VH: QVQLQESGPGLVKPSQTLSLTCTVSGYSITSDYNSHWIRQPPGKGLEWIGYIHYSGSTQYNPSLKSRVTISRDTSKNQFSLKLSSVTAADTAVYYCARNYGSIYVNYFDYWGQGTLVTVSS VL: EIVLTQSPATLSLSPGERATLSCSASSSVSYMYWYQQKPGQAPRPLIYRTSNLASGIPARFSGSGSGTDFTLTISSLEPEDFAVYYCQQYHSYPTFGGGTKVEIK	620 pM
SA301a HC-N58E (antibody, name in Kabat numbering, V domains shown, IgG1 kappa) VH: QVQLQESGPGLVKPSQTLSLTCTVSGYSITSDYNSHWIRQPPGKGLEWIGYIHYSGSTEYNPSLKSRVTISRDTSKNQFSLKLSSVTAADTAVYYCARNYGSIYVNYFDYWGQGTLVTVSS VL: EIVLTQSPATLSLSPGERATLSCSASSSVSYMYWYQQKPGQAPRPLIYRTSNLASGIPARFSGSGSGTDFTLTISSLEPEDFAVYYCQQYHSYPTFGGGTKVEIK	2500 pM
SA301a HC-N58R (antibody, name in Kabat numbering, V domains shown, IgG1 kappa) VH: QVQLQESGPGLVKPSQTLSLTCTVSGYSITSDYNSHWIRQPPGKGLEWIGYIHYSGSTRYNPSLKSRVTISRDTSKNQFSLKLSSVTAADTAVYYCARNYGSIYVNYFDYWGQGTLVTVSS VL: EIVLTQSPATLSLSPGERATLSCSASSSVSYMYWYQQKPGQAPRPLIYRTSNLASGIPARFSGSGSGTDFTLTISSLEPEDFAVYYCQQYHSYPTFGGGTKVEIK	460 pM
SA301a HC-N58H (antibody, name in Kabat numbering, V domains shown, IgG1 kappa) VH: QVQLQESGPGLVKPSQTLSLTCTVSGYSITSDYNSHWIRQPPGKGLEWIGYIHYSGSTHYNPSLKSRVTISRDTSKNQFSLKLSSVTAADTAVYYCARNYGSIYVNYFDYWGQGTLVTVSS VL: EIVLTQSPATLSLSPGERATLSCSASSSVSYMYWYQQKPGQAPRPLIYRTSNLASGIPARFSGSGSGTDFTLTISSLEPEDFAVYYCQQYHSYPTFGGGTKVEIK	310 pM
SA301a HC-G55S (antibody, name in Kabat numbering, V domains shown, IgG1 kappa) VH: QVQLQESGPGLVKPSQTLSLTCTVSGYSITSDYNSHWIRQPPGKGLEWIGYIHYSSSTNYNPSLKSRVTISRDTSKNQFSLKLSSVTAADTAVYYCARNYGSIYVNYFDYWGQGTLVTVSS VL: EIVLTQSPATLSLSPGERATLSCSASSSVSYMYWYQQKPGQAPRPLIYRTSNLASGIPARFSGSGSGTDFTLTISSLEPEDFAVYYCQQYHSYPTFGGGTKVEIK	510 pM
SA301a HC-G55V (antibody, name in Kabat numbering, V domains shown, IgG1 kappa) VH: QVQLQESGPGLVKPSQTLSLTCTVSGYSITSDYNSHWIRQPPGKGLEWIGYIHYSVSTNYNPSLKSRVTISRDTSKNQFSLKLSSVTAADTAVYYCARNYGSIYVNYFDYWGQGTLVTVSS VL: EIVLTQSPATLSLSPGERATLSCSASSSVSYMYWYQQKPGQAPRPLIYRTSNLASGIPARFSGSGSGTDFTLTISSLEPEDFAVYYCQQYHSYPTFGGGTKVEIK	440 pM
SA301a HC-G55T (antibody, name in Kabat numbering, V domains shown, IgG1 kappa) VH: QVQLQESGPGLVKPSQTLSLTCTVSGYSITSDYNSHWIRQPPGKGLEWIGYIHYSTSTNYNPSLKSRVTISRDTSKNQFSLKLSSVTAADTAVYYCARNYGSIYVNYFDYWGQGTLVTVSS VL: EIVLTQSPATLSLSPGERATLSCSASSSVSYMYWYQQKPGQAPRPLIYRTSNLASGIPARFSGSGSGTDFTLTISSLEPEDFAVYYCQQYHSYPTFGGGTKVEIK	1000 pM
SA301a HC-N58I (antibody, name in Kabat numbering, V domains shown, IgG1 kappa) VH: QVQLQESGPGLVKPSQTLSLTCTVSGYSITSDYNSHWIRQPPGKGLEWIGYIHYSGSTIYNPSLKSRVTISRDTSKNQFSLKLSSVTAADTAVYYCARNYGSIYVNYFDYWGQGTLVTVSS VL: EIVLTQSPATLSLSPGERATLSCSASSSVSYMYWYQQKPGQAPRPLIYRTSNLASGIPARFSGSGSGTDFTLTISSLEPEDFAVYYCQQYHSYPTFGGGTKVEIK	270 pM
SA301a HC-G55Q (antibody, name in Kabat numbering, V domains shown, IgG1 kappa) VH: QVQLQESGPGLVKPSQTLSLTCTVSGYSITSDYNSHWIRQPPGKGLEWIGYIHYSQSTNYNPSLKSRVTISRDTSKNQFSLKLSSVTAADTAVYYCARNYGSIYVNYFDYWGQGTLVTVSS VL: EIVLTQSPATLSLSPGERATLSCSASSSVSYMYWYQQKPGQAPRPLIYRTSNLASGIPARFSGSGSGTDFTLTISSLEPEDFAVYYCQQYHSYPTFGGGTKVEIK	790 pM
SA301a HC-N58S (antibody, name in Kabat numbering, V domains shown, IgG1 kappa) VH: QVQLQESGPGLVKPSQTLSLTCTVSGYSITSDYNSHWIRQPPGKGLEWIGYIHYSGSTSYNPSLKSRVTISRDTSKNQFSLKLSSVTAADTAVYYCARNYGSIYVNYFDYWGQGTLVTVSS VL: EIVLTQSPATLSLSPGERATLSCSASSSVSYMYWYQQKPGQAPRPLIYRTSNLASGIPARFSGSGSGTDFTLTISSLEPEDFAVYYCQQYHSYPTFGGGTKVEIK	1370 pM
SA301a HC-N58A (antibody, name in Kabat numbering, V domains shown, IgG1 kappa) VH: QVQLQESGPGLVKPSQTLSLTCTVSGYSITSDYNSHWIRQPPGKGLEWIGYIHYSGSTAYNPSLKSRVTISRDTSKNQFSLKLSSVTAADTAVYYCARNYGSIYVNYFDYWGQGTLVTVSS VL: EIVLTQSPATLSLSPGERATLSCSASSSVSYMYWYQQKPGQAPRPLIYRTSNLASGIPARFSGSGSGTDFTLTISSLEPEDFAVYYCQQYHSYPTFGGGTKVEIK	640 pM
SA301a HC-G55L (antibody, name in Kabat numbering, V domains shown, IgG1 kappa) VH: QVQLQESGPGLVKPSQTLSLTCTVSGYSITSDYNSHWIRQPPGKGLEWIGYIHYSLSTNYNPSLKSRVTISRDTSKNQFSLKLSSVTAADTAVYYCARNYGSIYVNYFDYWGQGTLVTVSS VL: EIVLTQSPATLSLSPGERATLSCSASSSVSYMYWYQQKPGQAPRPLIYRTSNLASGIPARFSGSGSGTDFTLTISSLEPEDFAVYYCQQYHSYPTFGGGTKVEIK	1720 pM
SA301a HC-G55M (antibody, name in Kabat numbering, V domains shown, IgG1 kappa) VH: QVQLQESGPGLVKPSQTLSLTCTVSGYSITSDYNSHWIRQPPGKGLEWIGYIHYSMSTNYNPSLKSRVTISRDTSKNQFSLKLSSVTAADTAVYYCARNYGSIYVNYFDYWGQGTLVTVSS VL: EIVLTQSPATLSLSPGERATLSCSASSSVSYMYWYQQKPGQAPRPLIYRTSNLASGIPARFSGSGSGTDFTLTISSLEPEDFAVYYCQQYHSYPTFGGGTKVEIK	840 pM
SA301a HC-G55R (antibody, name in Kabat numbering, V domains shown, IgG1 kappa) VH: QVQLQESGPGLVKPSQTLSLTCTVSGYSITSDYNSHWIRQPPGKGLEWIGYIHYSRSTNYNPSLKSRVTISRDTSKNQFSLKLSSVTAADTAVYYCARNYGSIYVNYFDYWGQGTLVTVSS VL: EIVLTQSPATLSLSPGERATLSCSASSSVSYMYWYQQKPGQAPRPLIYRTSNLASGIPARFSGSGSGTDFTLTISSLEPEDFAVYYCQQYHSYPTFGGGTKVEIK	750 pM
SA301a HC-N58D (antibody, name in Kabat numbering, V domains shown, IgG1 kappa) VH: QVQLQESGPGLVKPSQTLSLTCTVSGYSITSDYNSHWIRQPPGKGLEWIGYIHYSGSTDYNPSLKSRVTISRDTSKNQFSLKLSSVTAADTAVYYCARNYGSIYVNYFDYWGQGTLVTVSS VL: EIVLTQSPATLSLSPGERATLSCSASSSVSYMYWYQQKPGQAPRPLIYRTSNLASGIPARFSGSGSGTDFTLTISSLEPEDFAVYYCQQYHSYPTFGGGTKVEIK	4510 pM

Source: US20250368745A1 (published 2025)
